Measurements reported in patent publication US20220289825A1 (NANJING SHUNXIN PHARMACEUTICALS CO LTD OF CHIATAI TIANQING …, published 2022).
Where “and” joins values, the source holds several entries; their conditions need not be identical. Equal values may be shown once.

Biological target: PD-L1 on CHO-PDL1-CD3L cells (UniProt Q9NZQ7 19-290, limits assumed)
Assay: cell-based or functional assay

PD-L1 on CHO-PDL1-CD3L cells, sequence (Q9NZQ7 19-290 limits assumed): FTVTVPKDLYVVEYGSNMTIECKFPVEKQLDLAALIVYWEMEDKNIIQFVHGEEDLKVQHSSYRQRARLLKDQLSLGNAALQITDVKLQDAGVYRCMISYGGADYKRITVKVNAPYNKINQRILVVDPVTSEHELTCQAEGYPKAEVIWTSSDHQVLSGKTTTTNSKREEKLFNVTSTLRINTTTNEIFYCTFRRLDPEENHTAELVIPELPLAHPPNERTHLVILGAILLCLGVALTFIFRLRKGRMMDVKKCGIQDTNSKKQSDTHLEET

B1: PD-L1 antibody (humanized 5G11-IgG1 antibody of CN107001463) (antibody, V domains shown)
VH: QITLKESGPTLVKPTQTLTLTCTVSGFSLSTYGVHWIRQPPGKALEWLGVIWRGVTTDYNAAFMSRLTITKDNSKNQVVLTMNNMDPVDTATYYCARLGFYAMDYWGQGTLVTVSS
VL: DIQMTQSPSSLSASVGDRVTITCKASQSVSNDVAWYQQKPGKAPKLLIYYAANRYTGVPDRFSGSGYGTDFTFTISSLQPEDIATYFCQQDYTSPYTFGQGTKLEIKR
- Biological activity (EC50 of reference sample/EC50 of test sample x 100%): 100%
- EC50 (nmol/L), reporter gene assay (CHO-PDL1-CD3L + Jurkat-PD-1-NFAT, luciferase RLU): 4.6 nmol/L and 4.15 nmol/L
